This note sets out measurements from patent publication US20230374151A1 (GlaxoSmithKline, published 2023).

Changes are numbered by the printed parent chain. “And” between values parts separate entries of the source, which are not always exact repeats. Equal values may be shown once.

Sequences and labels used below:
T1: MUC1 peptide (non-glycosylated), biotinylated (N-terminal Biotin-PEG2; C-terminal amide)
T1 construct: also called 36-4; 7-36-4
T1 peptide: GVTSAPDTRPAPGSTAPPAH

B1: humanised anti-TnMUC1 scFv L2-H1 (construct 6D14) (scFv)
scFv: DIVMTQSPDSLAVSLGERATINCKSSQSLLNSGDQKNYLTWYQQKPGQPPKLLIFWASTRESGVPDRFSGSGSGTDFTLTISSLQAEDVAVYYCQNDYSYPLTFGQGTKLEIKGGGGSGGGGSGGGGSGGGGSQVQLVQSGAEVKKPGSSVKVSCKASGYTFTDHAIHWVRQAPGQGLEWMGHFSPGNTDIKYNDKFKGRVTITADKSTSTAYMELSSLRSEDTAVYYCARSTFFFDYWGQGTTVTVSSAAAHHHHHH
B2: humanised anti-TnMUC1 scFv protein 9P1 (88A), VL-VH humanised control (scFv)
scFv: DIVMTQSPDSLAVSLGERATINCKSSQSLLNSGDQKNYLTWYQQKPGQPPKLLIYWASTRESGVPDRFSGSGSGTDFTLTISSLQAEDVAVYYCQNDYSYPLTFGQGTKVEIKGGGGSGGGGSGGGGSGGGGSQVQLVQSGAEVKKTGSSVKVSCKASGYTFTDHAIHWVRQAPGQALEWMGHFSPGNTDIKYNDKFKGRVTLTVDRSMSTAYMELSSLRSEDTAMYYCKTSTFFFDYWGQGTMVTVSSAAAHHHHHH
notes: Control scFv designed from a humanised antibody of WO2015/159076 (10D2 is said to come from Ab2, so 10D1 by implication from Ab1); Neat supernatant of construct 10D1 in the Octet assay; purified protein 9P1 in Biacore and flow cytometry; also called 10D1
B3: humanised anti-TnMUC1 scFv L3-H2 (construct 6D21) (scFv)
scFv: B1 scFv with D1E, I2L, M181I, V201A, I203L, A205V, K207R
B4: humanised anti-TnMUC1 scFv L3-H3 (construct 6D22) (scFv)
scFv: B1 scFv with D1E, I2L, A230K, R231T
B5: humanised anti-TnMUC1 scFv L0-H2 (construct 6D3) (scFv)
scFv: B1 scFv with F55Y, M181I, V201A, I203L, A205V, K207R
B6: humanised anti-TnMUC1 scFv L2-H4 (construct 6D17) (scFv)
scFv: B1 scFv with Y228F
B7: humanised anti-TnMUC1 scFv L1-H2 (construct 6D9) (scFv)
scFv: B1 scFv with D1E, I2L, F55Y, M181I, V201A, I203L, A205V, K207R
B8: humanised anti-TnMUC1 scFv L0-H4 (construct 6D5) (scFv)
scFv: B1 scFv with F55Y, Y228F
B9: humanised anti-TnMUC1 scFv L2-H2 (construct 6D15) (scFv)
scFv: B1 scFv with M181I, V201A, I203L, A205V, K207R
B10: humanised anti-TnMUC1 scFv L0-H1 (construct 6D2) (scFv)
scFv: B1 scFv with F55Y
B11: humanised anti-TnMUC1 scFv L1-H1 (construct 6D8) (scFv)
scFv: B1 scFv with D1E, I2L, F55Y
B12: humanised anti-TnMUC1 scFv L3-H1 (construct 6D20) (scFv)
scFv: B1 scFv with D1E, I2L
B13: humanised anti-TnMUC1 scFv L3-H4 (construct 6D23) (scFv)
scFv: B1 scFv with D1E, I2L, Y228F
B14: humanised anti-TnMUC1 scFv H3-L3, VH-VL orientation (construct 6D25) (scFv)
scFv: QVQLVQSGAEVKKPGSSVKVSCKASGYTFTDHAIHWVRQAPGQGLEWMGHFSPGNTDIKYNDKFKGRVTITADKSTSTAYMELSSLRSEDTAVYYCKTSTFFFDYWGQGTTVTVSSGGGGSGGGGSGGGGSGGGGSELVMTQSPDSLAVSLGERATINCKSSQSLLNSGDQKNYLTWYQQKPGQPPKLLIFWASTRESGVPDRFSGSGSGTDFTLTISSLQAEDVAVYYCQNDYSYPLTFGQGTKLEIKAAAHHHHHHH
B15: humanised anti-TnMUC1 scFv protein 11P12 (94A), L1-H5 (scFv)
scFv: ELVMTQSPDSLAVSLGERATINCKSSQSLLNSGDQKNYLTWYQQKPGQPPKLLIYWASTRESGVPDRFSGSGSGTDFTLTISSLQAEDVAVYYCQNDYSYPLTFGQGTKLEIKGGGGSGGGGSGGGGSGGGGSQVQLVQSGAEVKKPGSSVKVSCKASGYTFTDHAIHWVRQAPGQGLEWIGHFSPGNTDIKYNDKFKGRATLTVDRSTSTAYMELSSLRSEDTAVYFCKTSTFFFDYWGQGTTVTVSSAAAHHHHHH
notes: Supernatant of construct 6D12 in the Octet assay; purified 11P12 elsewhere; also called 6D12
B16: humanised anti-TnMUC1 scFv protein 13P18 (19A), L2-H5 (scFv)
scFv: B15 scFv with E1D, L2I, Y55F
notes: Supernatant of construct 6D18 in the Octet assay; purified 13P18 elsewhere. scFv of CAR MB025; also called 6D18
B17: humanised anti-TnMUC1 scFv protein 11P6 (89A), L0-H5 (scFv)
scFv: B15 scFv with E1D, L2I
notes: Supernatant of construct 6D6 in the Octet assay; purified 11P6 elsewhere; also called 6D6
B18: humanised anti-TnMUC1 scFv protein 13P24 (77A), L3-H5 (scFv)
scFv: B15 scFv with Y55F
notes: Two purification lots (13P24, 28P24); also called 28P24; 6D24

One assay addresses T1, MUC1 peptide (non-glycosylated), …. Briefly: Octet BLI, biotinylated peptide on streptavidin sensors. The protocol:
Biotinylated MUC1 peptide (7-36-4) and TnMUC1 peptide (7-36-2) were diluted to 10 μg/ml in Octet Running Buffer (1×PBSF) and loaded onto Octet SA (streptavidin) sensors. The positive control proteins were tested in the Octet assay at a single concentration of 500 nM. All humanised anti-Tn MUC1 scFv expression supernatants were assayed neat.
Data was analysed using the data acquisition software fortéBIO version 8.0.2.5 and the data analysis software fortéBIO version 8.0.2.3.
Background: Biolayer interferometry detects binding as a change in optical thickness at a sensor tip.
For B1, the binding result is on record as “no binding (tested: neat supernatant)”.
On to B2, for which the binding result is listed as “no binding (tested: neat supernatant)”.
Still for that read-out and setting: next, B3: “no binding (tested: neat supernatant)”; B4: “no binding (tested: neat supernatant)”.
As for B5, the binding result is “no binding (tested: neat supernatant)”.
On to B6, for which the binding result is on record as “no binding (tested: neat supernatant)”.
On the same count and under the same terms, as for B7, the entry is “no binding (tested: neat supernatant)”; as for B8, “no binding (tested: neat supernatant)”.
In the case of B9, the binding result is on record as “no binding (tested: neat supernatant)”.
In the case of B10, the binding result is on record as “no binding (tested: neat supernatant)”.
In the case of B11, the binding result is reported as “no binding (tested: neat supernatant)”.
Turning to B12, the binding result is given as “no binding (tested: neat supernatant)”.
On the same count and under the same terms, next, B13: “no binding (tested: neat supernatant)”; B14: “no binding (tested: neat supernatant)”.

In a further assay the target is T2, STnMUC1 peptide, biotinylated.
T2 construct: also called STn peptide; 35-1
Briefly: SPR (Biacore T200), STnMUC1 peptide on CAP chip, scFv as analyte. The protocol: The CAP chip (from the Biotin CAPture kit) was docked into BIAcore T200 instrument to hydrate overnight, as per manufacturer instructions. When the chip is docked (for the first time or after storage), the surface of the sensor chip needs to be conditioned with 3×1 minute injections of Regeneration Solution (from the Biotin CAPture kit). Regeneration Solution was prepared by mixing 3 parts of Regeneration Stock 1 (8M Guanidine-HCl) with 1-part Regeneration Stock 2 (1M NaOH). Both the reference and active flow cells of the sensor chip were conditioned with 3×60 second injections of Regeneration Solution at a flow rate of 10 μl/min.
(§1) Biotin CAPture Reagent was captured onto the active and reference flow cells for 300 seconds at 2 μl/min. The biotinylated peptides were diluted in BIAcore Running Buffer (as described above) and captured onto the active flow cell only, at a flow rate of 10 μl/min to obtain the capture level calculated in the equation detailed above.
(In SPR one partner is held on a chip, and binding of the other changes the refractive index at the surface.)
Turning to B15, the “fold lower affinity than the murine 5E5 scFv protein” value is about 10 fold.
For the molecule B16, the “fold lower affinity than the murine 5E5 scFv protein” value was about 10 fold.

A further assay deals with T1, MUC1 peptide (non-glycosylated), …. Briefly: SPR (Biacore T200), biotinylated peptide on CAP chip, scFv as analyte.
With B17, the binding result is “no binding (tested: 500 nM)”.
Consider B15, for which the binding result is “no binding (tested: 500 nM)”.
With B16, the binding result was “no binding (tested: 500 nM)”.
Same read-out and setting: next, B18: “no binding (tested: 500 nM)”.

In another assay the target is T3, TnMUC1 peptide (fully glycosylated), biotinylated.
T3 construct: Two batches (36-2 and 65-1) of the same peptide; also called 36-2; 7-36-2
Briefly: SPR (Biacore T200), peptide 36-2 on CAP chip, scFv as analyte, 1:1 fit; average. How it is done:
as §1
(§2) The humanised anti-TnMUC1 scFv proteins were passed over the reference and active flow cells at 500, 125, 31.25, 7.8, 1.9, 0 nM for binding to TnMUC1 and MUC1 peptides with a 300 second association followed by a 900 seconds dissociation with BIAcore Running Buffer at a flow rate of 30 μl/min.
(§3) BIAcore T200 Evaluation Software v3.0 was used to analyse the data. The data obtained has been fitted to a 1:1 binding model with the Rmax parameter set to local. As this is a capture experiment, a local Rmax parameter would be truly reflective as the protein is recaptured every time and theoretically surface is slightly different at each recapture, possibly producing slightly different capture each time. Kinetic Parameters (KD, kd and kₐ) were calculated for all the humanised anti-TnMUC1 scFv proteins.
As usually defined, the Kd is a measure of binding affinity in units of concentration. Read a high Kd as lower affinity. Usually koff stands for the first-order rate constant of dissociation. For orientation: kon means a measure of how fast the partners come together. The low end stands for slower complex formation, the high end for faster complex formation. Consider B17, for which binding was characterised by a dissociation constant (Kd) of 26.7 nM, the off-rate (koff) was found to be 0.00137 s⁻¹ and the kon came to 51500 M⁻¹ s⁻¹.
Turning to B2, binding was put at a Kd of 23 nM, the koff came to 0.00156 s⁻¹ and the on-rate constant (kon) is 67800 M⁻¹ s⁻¹.
Consider B15, for which the Kd was 54.4 nM, the koff amounted to 0.00155 s⁻¹ and the on-rate constant (kon) came out at 28400 M⁻¹ s⁻¹.
In turn, B16 returned a Kd of 70.9 nM, a koff of 0.0013 s⁻¹ and a kon of 18400 M⁻¹ s⁻¹.
With B18, binding was put at a Kd of 46.4 nM, the koff was 0.00133 s⁻¹ and the kon was found to be 28700 M⁻¹ s⁻¹.

For another assay, the target named is T3, TnMUC1 peptide (fully glycosylated), …. Kind of assay: SPR (Biacore T200), peptide 36-2 on CAP chip, scFv as analyte, 1:1 fit; single run. The protocol:
as §1, §2, §3
In the case of B17, the Kd was 25.7 nM and 27.6 nM; the dissociation rate constant (koff) is 0.00138 s⁻¹ and 0.00135 s⁻¹; the kon was 53800 M⁻¹ s⁻¹ and 49100 M⁻¹ s⁻¹.
For B2, the Kd was 22.8 nM and 23.3 nM; the koff is 0.00157 s⁻¹ and 0.00153 s⁻¹; the kon was 68800 M⁻¹ s⁻¹ and 65900 M⁻¹ s⁻¹.
With B15, the Kd is 53.6 nM and 55.2 nM; the koff is 0.00158 s⁻¹ and 0.00151 s⁻¹; the kon is 29400 M⁻¹ s⁻¹ and 27300 M⁻¹ s⁻¹.
On to B16, for which the Kd is 67.6 nM and 74.2 nM; the off-rate (koff) is 0.00131 s⁻¹ and 0.00129 s⁻¹; the kon is 19400 M⁻¹ s⁻¹ and 17400 M⁻¹ s⁻¹.
In turn, B18 gave a Kd of 46.4 nM, a koff of 0.00133 s⁻¹ and a kon of 28700 M⁻¹ s⁻¹.

The target is the same in another assay. Kind of assay: SPR (Biacore T200), peptide 36-2 on CAP chip, scFv as analyte, 1:1 fit; average, restated in nM. The protocol:
as §1, §2, §3
Turning to B17, binding was put at a Kd of 26.7 nM.
On to B2, for which the Kd worked out at 23 nM.
The molecule B15 had a Kd of 54 nM.
The same measure, in the same setting: next, B16: 70.9 nM; B18: 46.4 nM.

In another assay the target is T2, STnMUC1 peptide, biotinylated. Briefly: SPR (Biacore T200): biotinylated STnMUC1 peptide (35-1) captured on CAP chip, scFv as analyte.
The molecule B17 gave a Kd of 199 nM.
The molecule B16 gave a Kd of 196 nM.

For another assay the target is unchanged. Briefly: SPR (Biacore T200): biotinylated STnMUC1 peptide (35-1) captured on CAP chip, scFv as analyte, 1:1 fit, average.
In turn, B17 registered a dissociation constant Kd of 199 nM, a koff of 0.000435 s⁻¹ and a kon of 2200 M⁻¹ s⁻¹.
In turn, B16 displayed an equilibrium dissociation constant (Kd) of 196 nM, a koff of 0.000423 s⁻¹ and a kon of 2160 M⁻¹ s⁻¹.

The next assay has as its target T4, TnMUC1 peptide 1 (partially glycosylated), biotinylated.
T4 construct: also called 96-1; 32A
Briefly: SPR (Biacore T200): biotinylated TnMUC1 peptide 1 (96-1) captured on CAP chip, scFv as analyte, 1:1 fit, average. The protocol:
as §1, §2, §3
The molecule B17 showed a Kd of 60.3 nM, a koff of 0.00135 s⁻¹ and a kon of 22500 M⁻¹ s⁻¹.
With B16, the equilibrium dissociation constant (Kd) was found to be 51.1 nM and the koff was determined as 0.00131 s⁻¹.

Another assay deals with T3, TnMUC1 peptide (fully glycosylated), …. Briefly: SPR (Biacore T200): biotinylated TnMUC1 peptide batch 65-1 captured on CAP chip, scFv as analyte, 1:1 fit, average. The protocol: as §1, §2, §3
Molecule B17 gave a Kd of 48.6 nM, a koff of 0.00136 s⁻¹ and an on-rate constant (kon) of 28000 M⁻¹ s⁻¹.
The molecule B16 came in with a Kd of 40.7 nM and a dissociation rate constant (koff) of 0.00127 s⁻¹.
